{"source": "patent US20250263470A1", "about": "(AstraZeneca / MedImmune, published 2025)", "binders": {"B1": {"name": "FBD-56 (antibody, V domains shown)", "VH": "EVQLVESGGHLVQPGRSLRLSCAASGFTFEDYAMNWVRQAPGKGLEWVSVISWDSGRIGYADSVKGRFTISRDNAKNSSYLQMNSLRPEDTALYYCVRDMLAYYSDNSGKKYNVYGMDVWGQGTTVTVSS", "VL": "EIVLTQSPATLSLSPGERATLSCRASQSVSTFLAWYQQKPGQAPRLLMYDASNRATGIPARFSGSGSGTDFTLTISSLEPEDFAIYYCQQRSHWPPIFGQGTRLEIK"}, "B2": {"name": "FBD-94 (antibody, V domains shown)", "VH": "EVQLVESGGGLVQPGRSLRLSCAVSGFIFEDYAINWVRQAPGKGLEWVSIISWDSGRIGYADSVRGRFTISRDNAKNSSFLQMNSLRPEDTAVYYCVKDMLAYYYDGSGIRYNLYGMDVWGQGTTVTVSS", "VL": "B1 VL with Q27R, V29I, S30T, M48I, I58V, S76N, E81D, S92D"}, "B3": {"name": "FBC-39 (antibody, V domains shown)", "VH": "EVQLVVSGGGLVKPGGSLRLSCAASGLSFLNAWMSWVRQAPGKGLEWVGRIKSNTDGGTTDYAAPVKGRFSISRDDSKNMLFLHMSSLRTEDTAVYYCATDGPYSDDFRSGYAARYRYFGMDVWGQGTTVTVSS", "VL": "DIQMTQSPSSVSASVGDRVTITCRASQDISTWLAWYQQKPGKAPKLLIYAASSLQSGVPSRFSGSGSGTDFTLTISSLQPEDFATYFCQQANSFPPTFGQGTKLEIK"}, "B4": {"name": "FBC-39 FTL (antibody, V domains shown)", "VH": "B3 VH with V6E, L27F, S28T, S71T, M80T, F82Y, H84Q, R89K, A99T", "VL": "B3 VL with F87Y"}, "B5": {"name": "FBC-39 LTL (antibody, V domains shown)", "VH": "B3 VH with V6E, S28T, S71T, M80T, F82Y, H84Q, R89K, A99T", "VL": "B3 VL with F87Y"}, "B6": {"name": "FBC-39 FSL (antibody, V domains shown)", "VH": "B3 VH with V6E, L27F, S71T, M80T, F82Y, H84Q, R89K, A99T", "VL": "B3 VL with F87Y"}, "B7": {"name": "FBC-39 LSL (antibody, V domains shown)", "VH": "B3 VH with V6E, S71T, M80T, F82Y, H84Q, R89K, A99T", "VL": "B3 VL with F87Y"}}, "note": "Substitutions are numbered along the chain they refer to.", "data": [{"target": "HA of influenza B virus B/Florida/4/2006 (yamagata) (influenza B virus B/Florida/4/2006)", "test": "cell-based or functional assay", "units": {"Neutralization (Ave IC50 ug/ml)": "µg/mL"}, "values": [{"binder": "B1", "Neutralization (Ave IC50 ug/ml)": 0.013}, {"binder": "B2", "Neutralization (Ave IC50 ug/ml)": 0.016}, {"binder": "B3", "Neutralization (Ave IC50 ug/ml)": 0.046}, {"binder": "B4", "Neutralization (Ave IC50 ug/ml)": 0.014}, {"binder": "B5", "Neutralization (Ave IC50 ug/ml)": 0.023}, {"binder": "B6", "Neutralization (Ave IC50 ug/ml)": 0.017}, {"binder": "B7", "Neutralization (Ave IC50 ug/ml)": 0.016}]}]}
